Consider two molecules from patent US10184116B2, “Chimeric genes for the catalytic protein of Oplophorus luciferase and use thereof” (JNC CORPORATION, priority 2014, dated 2019).

In series [1] the test system is CHO-K1 cells. Kind of series: Luminescence activity of WNanoKAZ mutants expressed by secretory expression vectors in animal culture cells (Example 13). The format is cell-based, Chinese hamster. The following applies: pcDNA3-GLsp- secretory vector, coelenterazine substrate. How it is done: (§1) Chinese hamster ovary cell line CHO-K1 was cultured in Ham's F-12 medium (manufactured by Wako Pure Chemical Industries, Ltd.) supplemented with 10% (v/v) fetal bovine serum (manufactured by Biowest Inc.). The CHO-K1 cells were seeded in a 6-well plate in 1×10^5 cells/well/2 mL medium (n=2) and cultured in an incubator at 37° C. in 5% (v/v) CO2. After 24 hours, the purified recombinant plasmid was transfected to CHO-K1 cells using a FuGene HD transfection kit (manufactured by Promega Corp.) and the cells were used for subsequent experiment. Specifically, 1 μg of the recombinant plasmid, 0.1 μg of the internal standard vector pGL4.13 [Luc2/sv40] and 3 μL of FuGene HD were added to 100 μL of the medium and allowed to stand at room temperature for 15 minutes. Subsequently, 100 μL of the DNA-FuGene complex solution was added to the cells in the 6-well plate. After incubation for 46 hours, the culture medium was collected. On the other hand, the KAZ mutant expressed in the cells was washed 3 times with 3 mL of 1×PBS, then suspended in 1 mL of 1×PBS and disrupted by sonication on ice. The resultant cell extract of WNanoKAZ was used as the enzyme solution.
(§2) After adding 5 μL of the culture medium and cell extract obtained in EXAMPLE 5 to 100 μL of 30 mM Tris-HCl (pH 7.6)-10 mM EDTA (Wako Pure Chemical Industries, Ltd.) containing 1 μg of coelenterazine (manufactured by JNC Corp.), a luminescence reaction was started. Luminescence activity was measured for 60 seconds using a luminometer (manufactured by Atto Inc.: AB2200). The maximum intensity of luminescence (Imax) was given as a percentage (%).
The recombinant plasmid obtained in EXAMPLE 12 or 4 was purified in a manner similar to EXAMPLE 5 and dissolved in sterile water. The firefly luciferase vector (pGL4.13 [Luc2/sv40]: manufactured by Promega Corp.) was similarly prepared and used as an internal standard.
Culture medium containing two amino acid-substituted KAZ mutants and three amino acid-substituted KAZ mutants and cell extracts of the KAZ mutants as the enzyme solutions were prepared by the same procedure as in EXAMPLE 9.
The resultant culture medium and cell extracts were used to measure luminescence activity as in EXAMPLE 6.

Series [2] can be described thus: Luminescence activity of ZZ-fused WNanoKAZ mutants in crude enzyme solution (Example 10). In kind it is biochemical. The conditions noted are these: coelenterazine substrate; for Relative luminescence activity (Imax): ZZ-fused, pCold-ZZ-P- vector in E. coli, KAZ = 1.0; for fold higher activity than native KAZ / fold higher activity than the relative activity 7.4 of dnKAZ: Imax. How it is done: In order to express ZZ-fused KAZ mutants in E. coli, the recombinant plasmid produced in EXAMPLE 8 and pCold-ZZ-P-WNanoKAZ produced in EXAMPLE 1 were used. The crude enzyme solution was prepared in a manner similar to EXAMPLE 2, using the E. coli BL21 strain (Novagen, Madison, Wis.) as a host cell. Then, 5 μL of the crude enzyme solution obtained was subjected to SDS-PAGE analysis to confirm the protein expression in all mutants. In FIG. 1, M and 1 to 8 represent as follows. M: molecular weight size markers; 1: ZZ-P-KAZ; 2: ZZ-P-WNanoKAZ; 3: ZZ-P-WNanoKAZ-V90I; 4: ZZ-P-WNanoKAZ-E115P; 5: ZZ-P-WNanoKAZ-K124Q; 6: ZZ-P-WNanoKAZ-I138Y; 7: ZZ-P-WNanoKAZ-R166N; 8: ZZ-P-dnKAZ. It was confirmed from FIG. 1 that all mutants were expressed.
(§3) DTT was added to the crude enzyme solution obtained in EXAMPLE 9 at a final concentration of 1 mM, and then allowed to stand in an ice-water bath over 8 hours or more. After 1 μL of the crude enzyme solution was added to 100 μL of 30 mM Tris-HCl (pH 7.6)-10 mM EDTA (Wako Pure Chemical Industries, Ltd.) containing 1 μg of coelenterazine (manufactured by JNC Corp.), a luminescence reaction was started. Luminescence activity was measured for 60 seconds using a luminometer (manufactured by Atto Inc.: AB2200). The maximum intensity of luminescence (Imax) was given as a relative luminescence activity (rlu).

Series [3] in a line: Substrate specificity of WNanoKAZ mutants, crude enzyme solution (Example 11). In kind it is biochemical. The following applies: for Relative luminescence activity, 6h-CTZ, Imax / Relative luminescence activity, 6h-CTZ, Int.: substrate 6h-CTZ; for Relative luminescence activity, 6h-f-CTZ, Imax / Relative luminescence activity, 6h-f-CTZ, Int.: substrate 6h-f-CTZ; for Relative luminescence activity, CTZ, Imax / Relative luminescence activity, CTZ, Int.: substrate CTZ. How it is done:
as §3
Each of the coelenterazine analogues used for substrate specificity studies was synthesized by the methods described in publications. Specifically, bis-coelenterazine was synthesized by the method described in Nakamura et al. (1997) Tetrahedron Lett. 38: 6405-6406, furimazine by the method described in Hall et al. (2012) ACS Chem. Biol. […], and, 6h-coelenterazine, f-coelenterazine and 6h-f-coelenterazine by the method described in Inouye et al (2013) Biochem. Biophys. Res. Commun. 437: 23-28. Luminescence activity was measured by the same method as in EXAMPLE 10, using the crude enzyme solution obtained in EXAMPLE 10, in which coelenterazine or its analogue was used as the luminescence substrate.

The nature of series [4]: Luminescence activity of WNanoKAZ in crude enzyme solution (Example 3). The format is biochemical. How it is done: In order to express WNanoKAZ in E. coli, pCold-ZZ-P-WNanoKAZ obtained in EXAMPLE 1 was used. The E. coli BL21 strain (Novagen, Madison, Wis.) was used as a host cell. The BL21 strain carrying the recombinant plasmid was incubated in 5 mL of Luria-Bertani medium (hereinafter designated as LB medium) containing ampicillin (50 μg/mL) at 37° C. for 17 hours. The seed culture of 0.1 mL was inoculated to 10 mL of LB medium and incubated for 3 hours, followed by cooling in freezing water for 1 hour. IPTG was added to the culture medium at a final concentration of 0.1 mM, followed by incubation at 15° C. for further 19 hours. After completion of the incubation, 1 mL of the culture medium was collected by centrifugation at 10,000 rpm for 2 minutes. The collected E. coli cells were suspended in 0.5 mL of 30 mM Tris-HCl (pH 7.6)-10 mM EDTA. The cells were disrupted by sonication for 3 seconds using a Branson Model 250 Sonifire (Danbury, Conn.) to give a crude enzyme solution. Then, DTT was added to the crude enzyme solution at a final concentration of 1 mM. After the mixture was allowed to stand in freezing water over 8 hours or more, the luminescence activity was measured.
1 μl of the crude enzyme solution obtained in EXAMPLE 2 was added to 100 μl of 30 mM Trix-HCl (pH 7.6)-10 mM EDTA (Wako Pure Chemical Industries, Ltd.) containing 1 μg of coelenterazine (manufactured by JINC Corp.), luminescence reaction was started. Luminescence activity was measured for 60 seconds using a luminometer (manufactured by Atto Inc.: AB2200); the maximum intensity of luminescence (Imax) was given as a relative luminescence activity.

The test system of series [5] is CHO-K1 cells. Kind of series: Luminescence activity of KAZ mutants expressed in animal cultured cells, culture medium and cell extract (Example 6). The format is cell-based, Chinese hamster. The conditions noted are these: pcDNA3-GLsp- vector in CHO-K1, coelenterazine substrate. The protocol:
as §1, §2

B1: WNanoKAZ: chimeric protein: positions 1-82 of native KAZ and 83-169 of nanoKAZ; SEQ ID NO: 6; I90V, P115E, Q124K, Y138I, N166R (protein)
chain: FTLADFVGDWQQTAGYNQDQVLEQGGLSSLFQALGVSVTPIQKVVLSGENGLKADIHVIIPYEGLSGFQMGLIEMIFKVVYPVDDHHFKVILHYGTLVIDGVTPNMIDYFGRPYEGIAVFDGKKITVTGTLWNGNKIIDERLINPDGSLLFRVTINGVTGWRLCERILA
notes: chimeric protein: positions 1-82 of native KAZ and 83-169 of nanoKAZ; I90V, P115E, Q124K, Y138I, N166R
For the molecule B1, in series [1], the “Relative luminescence activity (%, Imax) Cell extracts” value amounted to 22% and the “Relative luminescence activity (%, Imax) Culture medium” value is listed as under 0.01%. Moreover, in series [2], the “Relative luminescence activity (Imax)” value was 64, the “fold higher activity than native KAZ” value came to 64 fold and the “fold higher activity than the relative activity 7.4 of dnKAZ” value is 8.6 fold. Moreover, in series [3], the “Relative luminescence activity, Furimazine, Imax” value amounted to 26; the “Relative luminescence activity, bis-CTZ, Imax” value was 32; the “Relative luminescence activity, f-CTZ, Imax” value amounted to 48; the “Relative luminescence activity, h-CTZ, Imax” value is on record as 64. In series [3], the “Relative luminescence activity, Furimazine, Int.” value was determined as 29; the “Relative luminescence activity, bis-CTZ, Int.” value was found to be 24; the “Relative luminescence activity, f-CTZ, Int.” value amounted to 32; the “Relative luminescence activity, h-CTZ, Int.” value was determined as 33. In series [3], the “fold higher activity than the other coelenterazine analogues when coelenterazine was used as the substrate” value worked out at 8.6 fold; the “Relative luminescence activity, 6h-CTZ, Imax” value stood at 8.9; the “Relative luminescence activity, 6h-CTZ, Int.” value came to 7.5; the “Relative luminescence activity, 6h-f-CTZ, Imax” value was 41. In series [3], the “Relative luminescence activity, 6h-f-CTZ, Int.” value is 34; the “Relative luminescence activity, CTZ, Imax” value is 64; the “Relative luminescence activity, CTZ, Int.” value is listed as 56. Besides, in series [4] (coelenterazine used as the substrate, as shown in EXAMPLE 3), the “fold higher activity than that of dnKAZ” value stood at 64 fold. Besides, the “Relative luminescence activity (Imax)” value in series [4] (crude enzyme solution, pCold-ZZ-P- vector in E. coli, coelenterazine substrate, KAZ = 1.0) is 64. The “fold higher activity than native KAZ” value in series [4] (crude enzyme solution, coelenterazine substrate, Imax) worked out at 64 fold. In series [5] (cell extracts), the “Relative luminescence activity (%, Imax) Cell extracts” value is on record as 22%. Further, in series [5] (culture medium), the “Relative luminescence activity (%, Imax) Culture medium” value is on record as under 0.01%.

B2: WNanoKAZ-R166N: single amino acid-substituted WNanoKAZ mutant R166N; SEQ ID NO: 16 (protein)
chain: FTLADFVGDWQQTAGYNQDQVLEQGGLSSLFQALGVSVTPIQKVVLSGENGLKADIHVIIPYEGLSGFQMGLIEMIFKVVYPVDDHHFKVILHYGTLVIDGVTPNMIDYFGRPYEGIAVFDGKKITVTGTLWNGNKIIDERLINPDGSLLFRVTINGVTGWRLCENILA
B2: in series [1], the “Relative luminescence activity (%, Imax) Cell extracts” value amounted to 26% and the “Relative luminescence activity (%, Imax) Culture medium” value is under 0.01%. Further, in series [2], the “Relative luminescence activity (Imax)” value worked out at 32, the “fold higher activity than native KAZ” value was determined as 32 fold and the “fold higher activity than the relative activity 7.4 of dnKAZ” value is 4.3 fold. Besides, in series [3], the “Relative luminescence activity, Furimazine, Imax” value turned out to be 17; the “Relative luminescence activity, bis-CTZ, Imax” value was determined as 17; the “Relative luminescence activity, f-CTZ, Imax” value was determined as 38; the “Relative luminescence activity, h-CTZ, Imax” value stood at 43. Besides, in series [3], the “Relative luminescence activity, Furimazine, Int.” value is reported as 12; the “Relative luminescence activity, bis-CTZ, Int.” value was 18; the “Relative luminescence activity, f-CTZ, Int.” value is 27; the “Relative luminescence activity, h-CTZ, Int.” value worked out at 28. In series [3], the “fold higher activity than the other coelenterazine analogues when coelenterazine was used as the substrate” value is given as 4.3 fold; the “Relative luminescence activity, 6h-CTZ, Imax” value was 4.6; the “Relative luminescence activity, 6h-CTZ, Int.” value is given as 6.1; the “Relative luminescence activity, 6h-f-CTZ, Imax” value is 13. Further, in series [3], the “Relative luminescence activity, 6h-f-CTZ, Int.” value amounted to 8.8; the “Relative luminescence activity, CTZ, Imax” value is 32; the “Relative luminescence activity, CTZ, Int.” value was found to be 36.
